Results: the supplement of paper PMC10065799, “High-throughput profiling of sequence recognition by tyrosine kinases and SH2 domains using bacterial peptide display” (eLife, 2023)

These sequences were tested against Fyn (UniProt P06241) (assay: phosphorylation enrichment, bacterial display (enrichment ratio); higher = better substrate or ligand; peptides without Tyr show the background).
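Also: 11-residue human phosphosite peptides and single-mutation variants displayed on the E. coli surface, counted by deep sequencing, each peptide's frequency after selection divided by its frequency in the unselected input library; frequency after pTyr selection over input frequency; kinase dosed for 20-30% of maximal phosphorylation in three min.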

Fyn, sequence (P06241 whole entry, looked up): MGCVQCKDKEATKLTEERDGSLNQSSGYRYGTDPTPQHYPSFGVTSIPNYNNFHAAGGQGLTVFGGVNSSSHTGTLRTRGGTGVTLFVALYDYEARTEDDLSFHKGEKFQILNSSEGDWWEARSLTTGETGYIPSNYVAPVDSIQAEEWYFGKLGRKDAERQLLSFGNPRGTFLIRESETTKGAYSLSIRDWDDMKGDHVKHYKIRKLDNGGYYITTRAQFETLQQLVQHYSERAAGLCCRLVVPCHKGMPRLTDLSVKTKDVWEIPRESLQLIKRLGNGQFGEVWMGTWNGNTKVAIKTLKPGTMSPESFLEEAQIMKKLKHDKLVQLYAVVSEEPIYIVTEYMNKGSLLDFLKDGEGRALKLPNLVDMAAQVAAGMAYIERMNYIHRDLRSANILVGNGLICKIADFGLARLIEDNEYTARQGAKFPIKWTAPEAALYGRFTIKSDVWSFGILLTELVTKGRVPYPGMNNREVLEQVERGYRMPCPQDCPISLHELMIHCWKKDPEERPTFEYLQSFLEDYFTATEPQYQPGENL

Sequence | phosphorylation enrichment
ARRHPYFFAPE [ALB_Y172_Y174F] | 0.58
SVVVPYESPEV [TP53_Y220_P222S] | 0.578
RRIHSYRGHLW [VHL_Y112] | 1.91
WFPANYVKLLS [ITSN1_Y1132] | 0.419
DLVLQYLRVPL [F9_Y371_A366D] | 0.518
DNEALYDICFC [TUBB3_Y208_R213C] | 7.33
GLVFLYMEKNQ [PRELP_Y156] | 0.304
ERRLIYASDPK [VPS13D_Y864_T865A] | 0.418
PPAPRCHHSAV [LZTR1_Y119_Y119C] | 0.921
NDDDVYLSLEE [VAV2_Y142_R143L] | 0.706
NTGDDYDLYGG [PTPN11_Y63_Y62D] | 1.51
SLESAYPEGSQ [TTF1_Y357] | 0.539
ESLRPYDVMDV [KCNQ2_Y562] | 0.668
FKDYFYCWNTF [AICDA_Y146] | 0.652
DKANRYFSPNF [PTEN_Y336] | 0.323
KDQGIYEDYVE [MYL6_Y86_T85I] | 2.05
EKESCYILHSS [PATJ_Y783_E779K] | 0.549

Sequence | phosphorylation enrichment
EILDVYIFLGP [GAA_Y340_G335E] | 0.934
DLITAYRAHGF [PDHA1_Y118_H113D] | 0.401
LNPLIYTLRNA [OR4C46_Y285_K288R] | 4.69
MEVGQYFFVKC [CYBB_Y324_I325F] | 0.551
KKRSVYIKVLF [CC2D2A_Y683_L684I] | 0.392
KYLENYLNCLL [PLD2_Y169_R172C] | 0.476
YRAVKYLQMVG [AVPR2_Y117_C112Y] | 0.397
AAGGRYDGLVG [HARS1_Y363] | 0.346
RQIQSYTCEID [DES_Y331_H326R] | 0.642
LLKKVYLMLDN [STAT1_Y203_M202V] | 0.627
RREWYYEVIIV [BACE1_Y260] | 0.571
LEDEVYAQKMK [TPM2_Y261] | 2.37
NTGVYYDLYGG [PTPN11_Y63_D61V] | 6.07
HRLSTYTKMLF [CHST8_Y251] | 0.443
PSAVAYPKRSQ [MARK3_Y432_V429A] | 0.563
SVVVPYEPPDV [TP53_Y220_E224D] | 0.429

Each sequence was assayed on AncSZ in the same assay as above.

Sequence | phosphorylation enrichment
ARRHPYFFAPE [ALB_Y172_Y174F] | 1.09
SVVVPYESPEV [TP53_Y220_P222S] | 1.36
RRIHSYRGHLW [VHL_Y112] | 2.9
WFPANYVKLLS [ITSN1_Y1132] | 0.785
DLVLQYLRVPL [F9_Y371_A366D] | 1.09
DNEALYDICFC [TUBB3_Y208_R213C] | 6.01
GLVFLYMEKNQ [PRELP_Y156] | 0.932
ERRLIYASDPK [VPS13D_Y864_T865A] | 0.634
PPAPRCHHSAV [LZTR1_Y119_Y119C] | 1.61
NDDDVYLSLEE [VAV2_Y142_R143L] | 1.49
NTGDDYDLYGG [PTPN11_Y63_Y62D] | 1.33
SLESAYPEGSQ [TTF1_Y357] | 0.877
ESLRPYDVMDV [KCNQ2_Y562] | 1.03
FKDYFYCWNTF [AICDA_Y146] | 2.04
DKANRYFSPNF [PTEN_Y336] | 0.583
KDQGIYEDYVE [MYL6_Y86_T85I] | 1.2
EKESCYILHSS [PATJ_Y783_E779K] | 1.28

Sequence | phosphorylation enrichment
EILDVYIFLGP [GAA_Y340_G335E] | 1.4
DLITAYRAHGF [PDHA1_Y118_H113D] | 0.543
LNPLIYTLRNA [OR4C46_Y285_K288R] | 1.79
MEVGQYFFVKC [CYBB_Y324_I325F] | 2.28
KKRSVYIKVLF [CC2D2A_Y683_L684I] | 0.99
KYLENYLNCLL [PLD2_Y169_R172C] | 1.1
YRAVKYLQMVG [AVPR2_Y117_C112Y] | 0.95
AAGGRYDGLVG [HARS1_Y363] | 0.677
RQIQSYTCEID [DES_Y331_H326R] | 1.02
LLKKVYLMLDN [STAT1_Y203_M202V] | 1.82
RREWYYEVIIV [BACE1_Y260] | 0.874
LEDEVYAQKMK [TPM2_Y261] | 2.79
NTGVYYDLYGG [PTPN11_Y63_D61V] | 1.88
HRLSTYTKMLF [CHST8_Y251] | 1.18
PSAVAYPKRSQ [MARK3_Y432_V429A] | 0.697
SVVVPYEPPDV [TP53_Y220_E224D] | 0.984

The sequences below were run against Jak2 (UniProt O60674) in the same assay as above.
Jak2, sequence (O60674 whole entry, looked up): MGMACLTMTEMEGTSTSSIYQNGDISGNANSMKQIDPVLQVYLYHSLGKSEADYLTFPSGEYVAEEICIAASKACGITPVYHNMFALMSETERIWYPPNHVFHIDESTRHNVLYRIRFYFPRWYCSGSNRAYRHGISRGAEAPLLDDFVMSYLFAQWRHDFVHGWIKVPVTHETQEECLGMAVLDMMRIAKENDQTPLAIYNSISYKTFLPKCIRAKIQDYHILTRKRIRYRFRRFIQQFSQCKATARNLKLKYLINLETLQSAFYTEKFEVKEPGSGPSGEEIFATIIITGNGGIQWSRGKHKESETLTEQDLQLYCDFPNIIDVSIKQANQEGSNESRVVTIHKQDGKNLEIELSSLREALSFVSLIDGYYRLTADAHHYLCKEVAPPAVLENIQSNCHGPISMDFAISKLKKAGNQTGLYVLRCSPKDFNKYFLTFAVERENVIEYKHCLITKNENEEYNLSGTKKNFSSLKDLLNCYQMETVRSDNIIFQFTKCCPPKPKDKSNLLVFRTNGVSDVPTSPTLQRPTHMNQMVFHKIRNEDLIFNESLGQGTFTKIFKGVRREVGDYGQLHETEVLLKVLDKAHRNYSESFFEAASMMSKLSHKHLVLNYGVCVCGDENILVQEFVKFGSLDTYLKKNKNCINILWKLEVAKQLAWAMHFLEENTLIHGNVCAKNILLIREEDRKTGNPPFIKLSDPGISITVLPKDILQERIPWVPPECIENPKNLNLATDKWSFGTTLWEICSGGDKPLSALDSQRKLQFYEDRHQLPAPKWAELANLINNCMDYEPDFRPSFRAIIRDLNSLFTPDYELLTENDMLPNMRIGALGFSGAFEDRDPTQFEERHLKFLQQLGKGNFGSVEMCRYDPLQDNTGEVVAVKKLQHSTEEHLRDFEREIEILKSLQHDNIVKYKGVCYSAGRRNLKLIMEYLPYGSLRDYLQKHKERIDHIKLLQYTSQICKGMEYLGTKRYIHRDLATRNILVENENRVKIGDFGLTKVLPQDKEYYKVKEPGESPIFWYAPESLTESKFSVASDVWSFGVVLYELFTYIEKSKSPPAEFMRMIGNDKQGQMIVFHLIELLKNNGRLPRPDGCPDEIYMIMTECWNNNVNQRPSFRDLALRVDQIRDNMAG

Sequence | phosphorylation enrichment
ARRHPYFFAPE [ALB_Y172_Y174F] | 0.726
SVVVPYESPEV [TP53_Y220_P222S] | 0.867
RRIHSYRGHLW [VHL_Y112] | 4.65
WFPANYVKLLS [ITSN1_Y1132] | 1.51
DLVLQYLRVPL [F9_Y371_A366D] | 3.15
DNEALYDICFC [TUBB3_Y208_R213C] | 1.46
GLVFLYMEKNQ [PRELP_Y156] | 1.17
ERRLIYASDPK [VPS13D_Y864_T865A] | 0.506
PPAPRCHHSAV [LZTR1_Y119_Y119C] | 1.75
NDDDVYLSLEE [VAV2_Y142_R143L] | 1.54
NTGDDYDLYGG [PTPN11_Y63_Y62D] | 0.912
SLESAYPEGSQ [TTF1_Y357] | 0.712
ESLRPYDVMDV [KCNQ2_Y562] | 0.876
FKDYFYCWNTF [AICDA_Y146] | 3.71
DKANRYFSPNF [PTEN_Y336] | 0.488
KDQGIYEDYVE [MYL6_Y86_T85I] | 0.936
EKESCYILHSS [PATJ_Y783_E779K] | 0.936

Sequence | phosphorylation enrichment
EILDVYIFLGP [GAA_Y340_G335E] | 1.37
DLITAYRAHGF [PDHA1_Y118_H113D] | 0.563
LNPLIYTLRNA [OR4C46_Y285_K288R] | 1.31
MEVGQYFFVKC [CYBB_Y324_I325F] | 2.56
KKRSVYIKVLF [CC2D2A_Y683_L684I] | 0.798
KYLENYLNCLL [PLD2_Y169_R172C] | 1.28
YRAVKYLQMVG [AVPR2_Y117_C112Y] | 0.766
AAGGRYDGLVG [HARS1_Y363] | 0.489
RQIQSYTCEID [DES_Y331_H326R] | 0.833
LLKKVYLMLDN [STAT1_Y203_M202V] | 1.85
RREWYYEVIIV [BACE1_Y260] | 0.389
LEDEVYAQKMK [TPM2_Y261] | 2.5
NTGVYYDLYGG [PTPN11_Y63_D61V] | 2.33
HRLSTYTKMLF [CHST8_Y251] | 1.22
PSAVAYPKRSQ [MARK3_Y432_V429A] | 0.577
SVVVPYEPPDV [TP53_Y220_E224D] | 0.752

These sequences were tested against MERTK (UniProt Q12866) in the same assay as above.
MERTK, sequence (Q12866 whole entry, looked up): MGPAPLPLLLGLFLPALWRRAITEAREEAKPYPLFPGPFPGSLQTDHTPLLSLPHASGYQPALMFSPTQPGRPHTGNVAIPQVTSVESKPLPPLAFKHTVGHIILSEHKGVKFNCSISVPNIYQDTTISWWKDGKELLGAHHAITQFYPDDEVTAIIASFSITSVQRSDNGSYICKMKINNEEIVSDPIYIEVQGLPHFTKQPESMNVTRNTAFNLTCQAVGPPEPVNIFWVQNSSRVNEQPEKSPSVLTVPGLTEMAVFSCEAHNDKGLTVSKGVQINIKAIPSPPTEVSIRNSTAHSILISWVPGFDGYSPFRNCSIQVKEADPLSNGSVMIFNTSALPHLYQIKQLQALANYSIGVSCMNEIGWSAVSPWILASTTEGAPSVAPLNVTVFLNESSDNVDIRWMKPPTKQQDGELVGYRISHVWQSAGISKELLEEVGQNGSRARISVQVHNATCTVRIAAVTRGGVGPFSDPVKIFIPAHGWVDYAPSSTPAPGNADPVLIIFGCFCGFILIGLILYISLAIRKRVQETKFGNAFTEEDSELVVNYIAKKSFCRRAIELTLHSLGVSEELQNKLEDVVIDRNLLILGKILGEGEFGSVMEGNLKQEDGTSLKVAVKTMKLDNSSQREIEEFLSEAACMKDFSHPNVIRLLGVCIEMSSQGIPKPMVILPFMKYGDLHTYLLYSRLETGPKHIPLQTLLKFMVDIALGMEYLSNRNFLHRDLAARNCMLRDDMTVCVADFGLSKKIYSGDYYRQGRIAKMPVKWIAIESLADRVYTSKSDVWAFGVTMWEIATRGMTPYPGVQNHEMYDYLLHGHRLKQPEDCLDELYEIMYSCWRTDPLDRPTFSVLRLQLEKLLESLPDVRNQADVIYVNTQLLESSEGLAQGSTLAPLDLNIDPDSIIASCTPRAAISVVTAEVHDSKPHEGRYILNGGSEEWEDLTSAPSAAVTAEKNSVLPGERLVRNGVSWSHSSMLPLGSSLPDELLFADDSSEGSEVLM

Sequence | phosphorylation enrichment
ARRHPYFFAPE [ALB_Y172_Y174F] | 0.588
SVVVPYESPEV [TP53_Y220_P222S] | 0.463
RRIHSYRGHLW [VHL_Y112] | 2.69
WFPANYVKLLS [ITSN1_Y1132] | 0.569
DLVLQYLRVPL [F9_Y371_A366D] | 0.404
DNEALYDICFC [TUBB3_Y208_R213C] | 8.05
GLVFLYMEKNQ [PRELP_Y156] | 0.262
ERRLIYASDPK [VPS13D_Y864_T865A] | 0.45
PPAPRCHHSAV [LZTR1_Y119_Y119C] | 0.566
NDDDVYLSLEE [VAV2_Y142_R143L] | 0.507
NTGDDYDLYGG [PTPN11_Y63_Y62D] | 0.494
SLESAYPEGSQ [TTF1_Y357] | 0.366
ESLRPYDVMDV [KCNQ2_Y562] | 0.437
FKDYFYCWNTF [AICDA_Y146] | 2.8
DKANRYFSPNF [PTEN_Y336] | 0.374
KDQGIYEDYVE [MYL6_Y86_T85I] | 0.489
EKESCYILHSS [PATJ_Y783_E779K] | 0.533

Sequence | phosphorylation enrichment
EILDVYIFLGP [GAA_Y340_G335E] | 1.15
DLITAYRAHGF [PDHA1_Y118_H113D] | 0.355
LNPLIYTLRNA [OR4C46_Y285_K288R] | 1.97
MEVGQYFFVKC [CYBB_Y324_I325F] | 1.13
KKRSVYIKVLF [CC2D2A_Y683_L684I] | 0.335
KYLENYLNCLL [PLD2_Y169_R172C] | 0.52
YRAVKYLQMVG [AVPR2_Y117_C112Y] | 0.385
AAGGRYDGLVG [HARS1_Y363] | 0.378
RQIQSYTCEID [DES_Y331_H326R] | 0.489
LLKKVYLMLDN [STAT1_Y203_M202V] | 0.704
RREWYYEVIIV [BACE1_Y260] | 0.832
LEDEVYAQKMK [TPM2_Y261] | 0.889
NTGVYYDLYGG [PTPN11_Y63_D61V] | 7.75
HRLSTYTKMLF [CHST8_Y251] | 0.707
PSAVAYPKRSQ [MARK3_Y432_V429A] | 0.685
SVVVPYEPPDV [TP53_Y220_E224D] | 0.337
